According to WO2001004269A1:

Columns and labels:
[1] = target: von Willebrand factor (UniProt P04275); test: as above, after thrombin digestion (activated factor VIII) in the absence of antibody; design: unit not given here
[2] = target: von Willebrand factor (UniProt P04275); test: biotinylated recombinant factor VIII complexed to von Willebrand factor, captured on the anti-von Willebrand factor antibody MoAb4H1D7, no thrombin digestion, avidin-peroxidase detection; design: unit not given here

OD450 (OD450 (so in the source)) [1]: 160 | OD450 (OD450 (so in the source)) [2]: 460
Substance: human recombinant factor VIII (from UniProt P00451 20-2351)
